US20250090695A1, “IMMUNOSTIMULANT-CYTOTOXIC CONJUGATE COMPOSITION AND METHODS FOR CANCER TREATMENT” (The Research Foundation for the State University of New York, priority 2022, published 2025)

Columns and labels:
[1] = system: RM1-PGLS tumors; format: in vivo, murine subjects
Method: FIG. 11A-11C show a visual schematic of RM1-PGLS tumor insertion in mice followed by T-cell population analysis (FIG. 11A), and tumor efficacy study analysis for in vivo tumor treatment with experimental ^177Lu-RIMS-1 compound compared with control compounds: ^177Lu-PSMA-617, unlabeled Lu-RIMS, and saline (FIG. 11B) measuring tumor volume (left), and percent survival (right).
Murine subjects were treated with RIMS compounds and tumor volume (FIG. 11B, left), subject viability measured as percent survival (FIG. 11B, right), subject weight (FIG. 11C), were described and analyzed as shown in FIGS. 11A-11C. Median overall survivability (OS) in murine subjects treated with RIMS compounds and control therapies.

[2] = Biodistribution in a xenograft model of prostate cancer with PC-3 PiP (PSMA(+)) and PC-3 flu (PSMA(−)) tumors; format: in vivo, Male NCr nude mice; conditions: male, mouse, total radioactivity, PC-3 PiP/PC-3 flu xenograft, NCr nude mice
Method: Biodistribution analyses of ^177Lu-RIMS-1 and ^177Lu-PSMA-617 were carried out in a xenograft model of prostate cancer with a PC-3 PiP tumor (PSMA(+)) on the left shoulder of a murine subject, and a PC-3 flu tumor (PSMA(−)) on the right should of a murine subject. Murine subjects examined were Male NCr nude mice.

[3] = system: CD8+ and CD4+ T-cell populations; assay: T-cell population analysis in spleen and tumor of RM1-PGLS bearing mice; format: in vivo; set-up: unit not given here; conditions: RM1-PGLS bearing C57BL/6J mice
Method: FIG. 12A-12B show graphical representations of T-cell population analysis measuring cell viability in the spleen (FIG. 12A). and in the tumor (FIG. 12B) in vivo for subjects having RM1-PGLS tumors with either an experimental ^177Lu-RIMS compound, or a control compound selected from: ^177Lu-PSMA-617, unlabeled Lu-RIMS, or a control vehicle.
^177Lu-RIMS-1 and control compounds were evaluated for immune cell recruitment.

[4] = system: T-cells (CD3); assay: Immuno-PET ROI analysis of 89Zr-DFO-anti-CD3 after therapy (tumor infiltrating T-cells); format: in vivo, murine subjects
Method: FIG. 13A-13C describes a method and results for T-cell detection using immuno-positron emission tomography (PET).
FIG. 14A-14D show graphical representations of tumor infiltrating T-cell analysis after administration of a therapeutic compound or control. Infiltration was measured using immuno-positron emission tomography (PET).

[5] = OLINDA dosimetry to adult male from mouse biodistribution
[6] = in vivo; conditions: C57BL/6J, mouse, total radioactivity
[7] = PSMA(+) PC-3 PiP tumor, read-out: Biodistribution PSMA (+) (PC3-PIP) tumor (% ID/g ± SD)
[8] = PSMA(-) PC-3 flu tumor, read-out: Biodistribution PSMA (−) (PC3-Flu) tumor (% ID/g ± SD)
[9] = blood, read-out: Biodistribution Blood (% ID/g ± SD)
[10] = bone, read-out: Biodistribution Bone (% ID/g ± SD)
[11] = heart, read-out: Biodistribution Heart (% ID/g ± SD)
[12] = kidney, read-out: Biodistribution Kidney (% ID/g ± SD)
[13] = liver, read-out: Biodistribution Liver (% ID/g ± SD)
[14] = small intestine, read-out: Biodistribution Sm Int (% ID/g ± SD)
[15] = spleen, read-out: Biodistribution Spleen (% ID/g ± SD)
[16] = Biodistribution Blood (% ID/g ± SD)
[17] = Biodistribution Bone (% ID/g ± SD)
[18] = Biodistribution Heart (% ID/g ± SD)
[19] = Biodistribution Kidney (% ID/g ± SD)
[20] = Biodistribution Liver (% ID/g ± SD)
[21] = Biodistribution Muscle (% ID/g ± SD)
[22] = Biodistribution RM1-PGLS tumor (% ID/g ± SD)
[23] = Biodistribution Sm Int (% ID/g ± SD)
[24] = Biodistribution Spleen (% ID/g ± SD)

CCCCc1nc2c(N)nc3ccccc3c2n1Cc1ccc(CNC(=O)OCc2ccc(NC(=O)[C@H](C)NC(=O)[C@@H](NC(=O)CCCCC(=O)N[C@@H](CCCCNC(=O)CN3CCN(CC(=O)O)CCN(CC(=O)O)CCN(CC(=O)O)CC3)C(=O)NC[C@H]3CC[C@H](C(=O)N[C@@H](Cc4ccc5ccccc5c4)C(=O)NCCCC[C@H](NC(=O)N[C@@H](CCC(=O)O)C(=O)O)C(=O)O)CC3)C(C)C)cc2)cc1 [^177Lu-RIMS-1, metal not drawn]
Relative body weight ([1]; mouse, in vivo): decrease in relative body weight | Median OS ([1]; overall survival post treatment, RM1-PGLS tumors, P < 0.0007 printed for 177Lu-RIMS-1): 30 days | tissue uptake at 2 h [2, 7]: 7.16 ± 2.68 %ID/g | tissue uptake at 24 h [2, 7]: 6.04 ± 1.76 %ID/g | tissue uptake at 72 h [2, 7]: 2.65 ± 1.03 %ID/g | tissue uptake at 2 h [2, 8]: 1.65 ± 0.24 %ID/g | tissue uptake at 24 h [2, 8]: 0.16 ± 0.01 %ID/g | tissue uptake at 2 h [2, 9]: 3.36 ± 0.2 %ID/g | tissue uptake at 24 h [2, 9]: 0.06 ± 0.01 %ID/g | tissue uptake at 72 h [2, 9]: 0.01 ± 0.01 %ID/g | tissue uptake at 2 h [2, 10]: 0.72 ± 0.15 %ID/g | tissue uptake at 24 h [2, 10]: 0.17 ± 0.06 %ID/g | tissue uptake at 72 h [2, 10]: 0.1 ± 0.04 %ID/g | tissue uptake at 2 h [2, 11]: 1.28 ± 0.08 %ID/g | tissue uptake at 24 h [2, 11]: 0.16 ± 0.02 %ID/g | tissue uptake at 72 h [2, 11]: 0.06 ± 0.01 %ID/g | tissue uptake at 2 h [2, 12]: 24.5 ± 2.58 %ID/g | tissue uptake at 24 h [2, 12]: 6.24 ± 1.03 %ID/g | tissue uptake at 72 h [2, 12]: 2.1 ± 0.31 %ID/g | tissue uptake at 2 h [2, 13]: 7.95 ± 0.35 %ID/g | tissue uptake at 24 h [2, 13]: 3.19 ± 0.38 %ID/g | tissue uptake at 72 h [2, 13]: 1.36 ± 0.29 %ID/g | tissue uptake at 2 h ([2]; muscle, read-out: Biodistribution Muscle (% ID/g ± SD)): 0.36 ± 0.06 %ID/g | tissue uptake at 2 h [2, 14]: 1.15 ± 0.1 %ID/g | tissue uptake at 24 h [2, 14]: 0.54 ± 0.8 %ID/g | tissue uptake at 2 h [2, 15]: 2.32 ± 0.052 %ID/g | tissue uptake at 24 h [2, 15]: 0.77 ± 0.31 %ID/g | tissue uptake at 72 h [2, 15]: 0.29 ± 0.11 %ID/g | Total CD4+ T-cell population ([3]; Spleen): 14.51 ± 2.24 | Total CD8+ T-cell population ([3]; Spleen): 7.70 ± 0.84 | Total CD4+ T-cell population ([3]; Tumor): 2.07 ± 1.54 | Total CD8+ T-cell population ([3]; Tumor): 4.72 ± 2.70 | % Injected Dose/cc of 89Zr-DFO-anti-CD3 (ROI) ([4]; Blood, 8 days after administration of therapy): 7.95 ± 0.75 % Injected Dose/cc | % Injected Dose/cc of 89Zr-DFO-anti-CD3 (ROI) ([4]; Blood, 9 days after administration of therapy): 7.075 ± 0.94 % Injected Dose/cc | % Injected Dose/cc of 89Zr-DFO-anti-CD3 (ROI) ([4]; Blood, 10 days after administration of therapy): 4.98 ± 0.61 % Injected Dose/cc | % Injected Dose/cc of 89Zr-DFO-anti-CD3 (ROI) ([4]; Blood, 11 days after administration of therapy): 4.33 ± 1.40 % Injected Dose/cc | % Injected Dose/cc of 89Zr-DFO-anti-CD3 (ROI) ([4]; Blood, 12 days after administration of therapy): 3.07 ± 1.23 % Injected Dose/cc | % Injected Dose/cc of 89Zr-DFO-anti-CD3 (ROI) ([4]; Spleen, 8 days after administration of therapy): 15.65 ± 0.96 % Injected Dose/cc | % Injected Dose/cc of 89Zr-DFO-anti-CD3 (ROI) ([4]; Spleen, 9 days after administration of therapy): 19.39 ± 3.46 % Injected Dose/cc | % Injected Dose/cc of 89Zr-DFO-anti-CD3 (ROI) ([4]; Spleen, 10 days after administration of therapy): 18.45 ± 1.30 % Injected Dose/cc | % Injected Dose/cc of 89Zr-DFO-anti-CD3 (ROI) ([4]; Spleen, 11 days after administration of therapy): 19.06 ± 2.34 % Injected Dose/cc | % Injected Dose/cc of 89Zr-DFO-anti-CD3 (ROI) ([4]; Spleen, 12 days after administration of therapy): 18.54 ± 1.04 % Injected Dose/cc | % Injected Dose/cc of 89Zr-DFO-anti-CD3 (ROI) ([4]; Tumor, 8 days after administration of therapy): 15.85 ± 3.12 % Injected Dose/cc | % Injected Dose/cc of 89Zr-DFO-anti-CD3 (ROI) ([4]; Tumor, 9 days after administration of therapy): 14.94 ± 2.65 % Injected Dose/cc | % Injected Dose/cc of 89Zr-DFO-anti-CD3 (ROI) ([4]; Tumor, 10 days after administration of therapy): 13.74 ± 3.74 % Injected Dose/cc | % Injected Dose/cc of 89Zr-DFO-anti-CD3 (ROI) ([4]; Tumor, 11 days after administration of therapy): 12.20 ± 4.43 % Injected Dose/cc | % Injected Dose/cc of 89Zr-DFO-anti-CD3 (ROI) ([4]; Tumor, 12 days after administration of therapy): 11.83 ± 5.22 % Injected Dose/cc | OLINDA dosimetry to Adult Male, Adrenals ([5]; Target Organ Adrenals): 8.71 μSv/MBq | OLINDA dosimetry to Adult Male, Brain ([5]; Target Organ Brain): 0.02 μSv/MBq | OLINDA dosimetry to Adult Male, Esophagus ([5]; Target Organ Esophagus): 2.03 μSv/MBq | OLINDA dosimetry to Adult Male, Eyes ([5]; Target Organ Eyes): 0.02 μSv/MBq | OLINDA dosimetry to Adult Male, Gallbladder Wall ([5]; Target Organ Gallbladder Wall): 7.09 μSv/MBq | OLINDA dosimetry to Adult Male, Heart Wall ([5]; Target Organ Heart Wall): 16.60 μSv/MBq | OLINDA dosimetry to Adult Male, Kidneys ([5]; Target Organ Kidneys): 262.00 μSv/MBq | OLINDA dosimetry to Adult Male, Left Colon ([5]; Target Organ Left Colon): 1.26 μSv/MBq | OLINDA dosimetry to Adult Male, Liver ([5]; Target Organ Liver): 219.00 μSv/MBq | OLINDA dosimetry to Adult Male, Lungs ([5]; Target Organ Lungs): 15.10 μSv/MBq | OLINDA dosimetry to Adult Male, Osteogenic Cells ([5]; Target Organ Osteogenic Cells): 3.70 μSv/MBq | OLINDA dosimetry to Adult Male, Pancreas ([5]; Target Organ Pancreas): 2.49 μSv/MBq | OLINDA dosimetry to Adult Male, Prostate ([5]; Target Organ Prostate): 0.34 μSv/MBq | OLINDA dosimetry to Adult Male, Rectum ([5]; Target Organ Rectum): 0.25 μSv/MBq | OLINDA dosimetry to Adult Male, Red Marrow ([5]; Target Organ Red Marrow): 1.39 μSv/MBq | OLINDA dosimetry to Adult Male, Right Colon ([5]; Target Organ Right Colon): 1.94 μSv/MBq | OLINDA dosimetry to Adult Male, Salivary Glands ([5]; Target Organ Salivary Glands): 0.05 μSv/MBq | OLINDA dosimetry to Adult Male, Small Intestine ([5]; Target Organ Small Intestine): 3.60 μSv/MBq | OLINDA dosimetry to Adult Male, Spleen ([5]; Target Organ Spleen): 228.00 μSv/MBq | OLINDA dosimetry to Adult Male, Stomach Wall ([5]; Target Organ Stomach Wall): 2.02 μSv/MBq | OLINDA dosimetry to Adult Male, Thymus ([5]; Target Organ Thymus): 0.95 μSv/MBq | OLINDA dosimetry to Adult Male, Thyroid ([5]; Target Organ Thyroid): 0.36 μSv/MBq | OLINDA dosimetry to Adult Male, Today Body ([5]; Target Organ Total Body): 7.73 μSv/MBq | OLINDA dosimetry to Adult Male, Tumor ([5]; Target Organ Tumor): 237.00 μSv/MBq | OLINDA dosimetry to Adult Male, Urinary Bladder Wall ([5]; Target Organ Urinary Bladder Wall): 10.90 μSv/MBq | tissue uptake at 2 h [6, 16]: 2.28 ± 0.29 %ID/g | tissue uptake at 24 h [6, 16]: 0.11 ± 0.01 %ID/g | tissue uptake at 72 h [6, 16]: 0.2 %ID/g | tissue uptake at 2 h [6, 17]: 1.03 ± 0.43 %ID/g | tissue uptake at 24 h [6, 17]: 0.24 ± 0.1 %ID/g | tissue uptake at 72 h [6, 17]: 0.14 ± 0.02 %ID/g | tissue uptake at 2 h [6, 18]: 0.83 ± 0.09 %ID/g | tissue uptake at 24 h [6, 18]: 0.13 ± 0.11 %ID/g | tissue uptake at 72 h [6, 18]: 0.03 ± 0.01 %ID/g | tissue uptake at 2 h [6, 19]: 15.3 ± 3.61 %ID/g | tissue uptake at 24 h [6, 19]: 5.03 ± 2.2 %ID/g | tissue uptake at 72 h [6, 19]: 1.66 ± 0.37 %ID/g | tissue uptake at 2 h [6, 20]: 23.4 ± 6.93 %ID/g | tissue uptake at 24 h [6, 20]: 8.69 ± 1.53 %ID/g | tissue uptake at 72 h [6, 20]: 7.28 ± 1.06 %ID/g | tissue uptake at 2 h [6, 21]: 0.27 ± 0.08 %ID/g | tissue uptake at 24 h [6, 21]: 0.04 ± 0.03 %ID/g | tissue uptake at 72 h [6, 21]: 0.02 ± 0.01 %ID/g | tissue uptake at 2 h [6, 22]: 1.98 ± 0.37 %ID/g | tissue uptake at 24 h [6, 22]: 0.66 ± 0.24 %ID/g | tissue uptake at 72 h [6, 22]: 0.23 ± 0.06 %ID/g | tissue uptake at 2 h [6, 23]: 0.55 ± 0.3 %ID/g | tissue uptake at 24 h [6, 23]: 0.07 ± 0.02 %ID/g | tissue uptake at 72 h [6, 23]: 0.05 ± 0.01 %ID/g | tissue uptake at 2 h [6, 24]: 10.3 ± 2.96 %ID/g | tissue uptake at 24 h [6, 24]: 2.16 ± 0.73 %ID/g | tissue uptake at 72 h [6, 24]: 1.14 ± 0.36 %ID/g
